In data set [1] the target is T1, RTEL1∆762-1097 (human, UniProt Q9NZ71-6 762-1097).
T1 sequence: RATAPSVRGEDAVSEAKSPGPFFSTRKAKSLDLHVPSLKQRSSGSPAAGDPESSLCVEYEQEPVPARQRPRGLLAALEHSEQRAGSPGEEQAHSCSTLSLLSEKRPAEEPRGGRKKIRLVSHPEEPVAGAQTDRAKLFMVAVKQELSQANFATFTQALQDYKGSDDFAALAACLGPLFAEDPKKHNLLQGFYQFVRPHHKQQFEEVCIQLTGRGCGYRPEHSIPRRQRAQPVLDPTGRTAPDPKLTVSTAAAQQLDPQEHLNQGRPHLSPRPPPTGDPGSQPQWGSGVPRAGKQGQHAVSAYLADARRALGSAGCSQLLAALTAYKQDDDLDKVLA
Put plainly: competition (fluorescence anisotropy); vs FAM-TERRA-MUT, 1 uM; 20 mM Tris pH 7.5, 50 mM KCl, 0.5 mM TCEP, 0.5 mM MgCl2, 10% glycerol, 0.1% IGEPAL, room temperature 30 min; oligos refolded in 10 mM Tris pH 7.5, 100 mM KCl; EMSA legends give 150 or 300 mM KCl. Particulars: protein: recombinant; tags: 6xHis; no G4.

For data set [2], the target named is T2, RTEL1∆762R1264H (human, UniProt Q9NZ71-6 762-1300, R1264H).
T2 sequence: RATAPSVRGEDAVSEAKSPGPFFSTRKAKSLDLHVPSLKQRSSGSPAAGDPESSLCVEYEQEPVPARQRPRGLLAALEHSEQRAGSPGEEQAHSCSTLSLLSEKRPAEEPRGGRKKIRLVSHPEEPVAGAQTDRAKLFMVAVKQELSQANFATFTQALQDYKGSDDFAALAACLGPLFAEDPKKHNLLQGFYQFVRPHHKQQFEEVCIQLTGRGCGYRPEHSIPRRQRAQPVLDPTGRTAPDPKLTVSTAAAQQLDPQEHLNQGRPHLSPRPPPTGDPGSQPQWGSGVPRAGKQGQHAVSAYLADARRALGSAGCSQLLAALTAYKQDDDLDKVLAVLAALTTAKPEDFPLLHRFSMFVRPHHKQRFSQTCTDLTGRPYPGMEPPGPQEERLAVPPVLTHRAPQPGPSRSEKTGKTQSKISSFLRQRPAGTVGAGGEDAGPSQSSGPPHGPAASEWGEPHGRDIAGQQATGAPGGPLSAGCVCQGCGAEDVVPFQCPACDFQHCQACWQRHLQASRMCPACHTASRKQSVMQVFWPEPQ
The description is as above. Particulars: protein: recombinant; tags: 6xHis; no G4.

In data set [3] the target is T3, RTEL1∆762 (human, UniProt Q9NZ71-6 762-1300).
T3 sequence: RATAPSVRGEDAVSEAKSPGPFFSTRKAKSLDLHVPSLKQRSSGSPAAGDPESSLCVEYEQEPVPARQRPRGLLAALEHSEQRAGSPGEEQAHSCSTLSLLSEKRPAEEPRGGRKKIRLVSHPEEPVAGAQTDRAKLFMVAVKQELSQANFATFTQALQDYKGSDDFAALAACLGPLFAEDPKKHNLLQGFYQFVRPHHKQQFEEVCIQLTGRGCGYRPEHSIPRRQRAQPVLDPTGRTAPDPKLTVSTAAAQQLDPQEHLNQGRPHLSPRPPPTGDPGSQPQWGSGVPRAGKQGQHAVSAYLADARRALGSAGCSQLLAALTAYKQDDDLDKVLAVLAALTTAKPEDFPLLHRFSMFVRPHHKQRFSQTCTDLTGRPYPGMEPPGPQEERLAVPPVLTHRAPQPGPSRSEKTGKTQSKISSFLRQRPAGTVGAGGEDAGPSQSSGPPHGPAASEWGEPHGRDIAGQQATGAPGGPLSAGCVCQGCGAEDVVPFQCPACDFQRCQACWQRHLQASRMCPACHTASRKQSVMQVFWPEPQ
The data set is described as above. Particulars: protein: recombinant; tags: 6xHis; chain copies: 2; no G4.

The target in data set [4] is T1, RTEL1∆762-1097. Put plainly: competition (fluorescence anisotropy); vs FAM-TERRA-MUT, 200 nM; 20 mM Tris pH 7.5, 50 mM KCl, 0.5 mM TCEP, 0.5 mM MgCl2, 10% glycerol, 0.1% IGEPAL, room temperature 30 min; oligos refolded in 10 mM Tris pH 7.5, 100 mM KCl; EMSA legends give 150 or 300 mM KCl. Particulars: protein: recombinant; tags: 6xHis; no G4. In general terms: Mobility shift assays separate free from complexed probe on a gel.

Data set [5] concerns the target T2, RTEL1∆762R1264H. Described as above. Particulars: protein: recombinant; tags: 6xHis; no G4.
In data set [6] the target is T3, RTEL1∆762. Briefly: competition (fluorescence anisotropy); vs FAM-TERRA-MUT, 200 nM; error in main text misprinted as 0.74 nM; 20 mM Tris pH 7.5, 50 mM KCl, 0.5 mM TCEP, 0.5 mM MgCl2, 10% glycerol, 0.1% IGEPAL, room temperature 30 min; oligos refolded in 10 mM Tris pH 7.5, 100 mM KCl; EMSA legends give 150 or 300 mM KCl. Particulars: protein: recombinant; tags: 6xHis; chain copies: 2; no G4.

As usually defined, the Ki is the equilibrium dissociation constant of an inhibitor or competing ligand from its target.

B1: TERRA-MUT competitor (ssRNA)
RNA: UUACCGUUACCGUUACCGUUACCG
With B1, the Ki with RTEL1∆762-1097 [1] stood at 16100 ± 15000 nM; with RTEL1∆762R1264H [2], 3810 ± 1450 nM; in the data set with RTEL1∆762 [3], 1450 ± 73 nM; with RTEL1∆762-1097 [4], 1650 ± 377 nM; with RTEL1∆762R1264H [5], 850 ± 125 nM; in the data set with RTEL1∆762 [6] it was 442 ± 74 nM.

(Values after paper PMC8140157, “RTEL1 influences the abundance and localization of TERRA RNA” (Nature Communications, 2020).)
